Molecular target: T1, TLR4 (Mus musculus, UniProt Q9JHF9+Q9QUK6)
T1 sequence (Q9QUK6 26-835): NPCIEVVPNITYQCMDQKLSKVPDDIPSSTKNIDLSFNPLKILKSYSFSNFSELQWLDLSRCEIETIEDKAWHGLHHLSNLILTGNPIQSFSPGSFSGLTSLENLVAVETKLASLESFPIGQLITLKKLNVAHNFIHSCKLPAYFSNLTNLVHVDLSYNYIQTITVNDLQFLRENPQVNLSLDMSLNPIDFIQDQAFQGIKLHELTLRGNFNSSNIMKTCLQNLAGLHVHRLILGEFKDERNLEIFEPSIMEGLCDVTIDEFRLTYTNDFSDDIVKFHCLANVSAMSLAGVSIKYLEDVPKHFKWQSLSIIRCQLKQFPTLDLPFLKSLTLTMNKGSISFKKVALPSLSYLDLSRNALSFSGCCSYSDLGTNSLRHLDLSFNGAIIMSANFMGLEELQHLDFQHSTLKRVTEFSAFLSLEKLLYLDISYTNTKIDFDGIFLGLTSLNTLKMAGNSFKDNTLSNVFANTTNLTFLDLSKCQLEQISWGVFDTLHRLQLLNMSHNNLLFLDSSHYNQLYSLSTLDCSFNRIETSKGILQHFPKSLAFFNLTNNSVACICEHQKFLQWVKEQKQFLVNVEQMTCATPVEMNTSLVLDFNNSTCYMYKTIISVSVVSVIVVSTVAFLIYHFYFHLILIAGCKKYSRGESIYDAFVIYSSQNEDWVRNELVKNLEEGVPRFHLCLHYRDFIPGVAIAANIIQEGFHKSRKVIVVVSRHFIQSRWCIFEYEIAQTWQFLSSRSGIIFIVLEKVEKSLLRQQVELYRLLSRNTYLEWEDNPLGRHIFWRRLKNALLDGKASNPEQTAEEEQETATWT
T1 sequence (Q9JHF9 19-160): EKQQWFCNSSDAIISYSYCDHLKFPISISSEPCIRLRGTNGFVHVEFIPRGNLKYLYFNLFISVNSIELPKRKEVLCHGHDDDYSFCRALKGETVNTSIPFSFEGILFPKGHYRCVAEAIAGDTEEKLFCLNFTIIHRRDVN
Assay: NFκB-luciferase reporter assay in HEK 293 cells stably expressing TLR4, MD2 and/or CD14
Format: cell-based, murine
Design: expressed in transfected cells; host or cells: HEK 293
Description: Model ECM environment. Tissue culture plates were coated with ECM as follows. PAEC were seeded into 6-well (3×10^5 cells/well), 24-well (5×10^4 cells/well) or 100 mm (2×10^5 cells) fibronectin-coated tissue culture plates (BD Biosciences, San Jose, Calif.) in DMEM (Invitrogen) containing 10% fetal bovine serum supplemented with penicillin and streptomycin and 4% w/v of Dextran 40. The cell cultures were incubated at 37° C. in 5% CO2 humidified atmosphere for seven days and were supplemented with […] on day three and day five. After 7 days, endothelial cells were washed once with phosphate buffered saline (PBS) and lysed by exposure to 0.5% w/v Triton X-100 and 20 mM NH4OH in PBS (pH 7.4) at 37° C. for 20 minutes (Bonifacino, 1998). The wells were then washed 4 times with PBS (pH 7.4) and inspected microscopically to ensure removal of the cells. Plates were used immediately or were stored in PBS (pH 7.4) with […] at 4° C.
HEK 293 cells were stably transfected with the TLR4 and MD2 or CD14 expression plasmids using Superfect (Qiagen, Valencia, Calif.) following the manufacturer's instructions. HEK 293 cells expressing TLR4 and MD2 or CD14 were obtained by culturing the transfected cells with appropriate antibiotic selection medium, and were cloned by limiting dilution in the selection medium. HEK 293 cells expressing TLR4, MD2 and CD14 were generated by transfecting HEK 293 cells that expressed TLR4 and MD2 with the CD14 expression plasmid, and selecting clones using appropriate antibiotic containing medium. Cell lines expressing TLR4 and MD2 and/or CD14 were then maintained in DMEM supplemented with 10% fetal bovine serum and the appropriate selection antibiotics. Control cell lines were transfected with empty expression vectors and incubated in selection conditions as described above. Selected clones were tested for cell surface expression of the TLR4/MD2 complex and CD14 by flow cytometry using monoclonal antibodies specific for the TLR4/MD2 complex or CD14.
NFκB-luciferase reporter assays. Activation of NFκB was measured using a NFκB-luciferase reporter assay. HEK 293 cell lines stably expressing TLR4, MD2 and/or CD14, or control cells were seeded into 24 well tissue culture plates (2×10^5 cells/well) in 1.0 ml DMEM containing 10% fetal bovine serum and penicillin and streptomycin. The cells were allowed to adhere to the culture wells at 37° C. overnight and were then transfected with […] NFκB-firefly-luciferase using Superfect Transfection Reagent (Qiagen). Following transfection, the cells were washed once with phosphate buffered saline and cultured for 24 hours at 37° C. in 1.0 ml DMEM containing 0.5% fetal bovine serum. After various treatments, the culture medium was aspirated and the cells were washed once with PBS. The cells were lysed in […] Passive Lysis Buffer (Promega) with rocking at room temperature for 15 minutes. Renilla- and Firefly-luciferase were assayed simultaneously using the Dual-Luciferase Reporter Assay System (Promega) and a TD-20/20 luminometer (Turner Designs, Sunnyvale, Calif.). Activation of NFκB was reported as a ratio of the firefly luciferase activity to the constitutively expressed Renilla luciferase internal control, and is the mean of triplicate wells.
To determine whether and under what conditions HS stimulates TLR4, various combinations of TLR4, MD2 and CD14, components of the putative TLR4 receptor complex, were stably expressed in HEK 293 cells and the effect of HS on TLR4 signaling in the transfected cells was examined (FIG. 1). The HEK 293 cells expressing receptor components were transiently transfected with a NFκB-firefly luciferase reporter construct along with a Renilla-luciferase internal control reporter construct. […]

[1] = HEK 293 cells lacking TLR4 and MD2 or CD14
[2] = HEK 293 cells that expressed TLR4, MD2, and CD14

Row | Substance | NFκB reporter response to elastase alone (HEK/TLR4(+) cells cultured in ECM, elastase 0.1 U/ml, no HS) | NFκB reporter response to elastase alone (HEK/TLR4(+) cells cultured on ECM, elastase 0.3 U/ml) | Activation in response to HS relative to cells not treated with elastase (HEK/TLR4(+) cells on ECM, elastase 0.1 U/ml plus HS) | Activation of reporter expression after elastase pre-treatment and treatment with HS or LPS (HEK/TLR4(+) cells on PAEC ECM, versus control cells not pre-treated) | NFκB reporter response to elastase (HEK/TLR4(+) cells on fibronectin, elastase 0.1 or 0.3 U/ml) | Activation of NFκB-luciferase reporter [1] | Activation of NFκB-luciferase reporter [2] | Effect of nitrous acid treatment on ability to stimulate TLR4 (HEK/TLR4(+) cells, nitrous acid pH 4.0 or pH 1.5)
1 | elastase: pancreatic elastase (Calbiochem; type IV porcine pancreatic elastase, Sigma-Aldrich), protease that cleaves ECM proteins | did not respond | responded even without addition of HS | 2 fold | greater | did not respond to either concentration of elastase | – | – | –
2 | heparan sulfate [HS] | – | – | – | – | – | did not respond | activated | –
3 | lipopolysaccharide [LPS] | – | – | – | – | – | did not respond | activated | did not affect
